Target: Recombinant RbAp48 (human, UniProt Q09028 1-425)
Test: ITC; MTA1 peptide (250 uM) titrated into RbAp48 (25 uM); 25 C; 20 mM Tris pH 7.5, 150 mM NaCl; single-site model
Conditions: both partners purified

Sequence of Recombinant RbAp48 (Q09028 whole entry): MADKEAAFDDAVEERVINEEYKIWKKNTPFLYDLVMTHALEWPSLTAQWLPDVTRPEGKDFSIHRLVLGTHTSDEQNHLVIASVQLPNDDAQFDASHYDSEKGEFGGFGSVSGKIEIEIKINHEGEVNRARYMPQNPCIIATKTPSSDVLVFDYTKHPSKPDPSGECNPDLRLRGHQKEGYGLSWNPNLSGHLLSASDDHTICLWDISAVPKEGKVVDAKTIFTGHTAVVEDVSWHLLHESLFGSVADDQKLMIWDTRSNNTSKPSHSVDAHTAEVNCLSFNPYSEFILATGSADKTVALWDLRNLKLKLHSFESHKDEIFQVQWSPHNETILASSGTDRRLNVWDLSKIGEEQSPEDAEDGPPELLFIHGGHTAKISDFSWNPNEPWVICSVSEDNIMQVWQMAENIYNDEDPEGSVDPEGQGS

Row | Binder | stoichiometry N | Kd [nM]
1 | Ac-DVFYMATEETRKIRKLLSSSETKRAARRPYK-NH2 (peptide, UniProt Q13330 656-686, looked up) [MTA1-(656-686) peptide] | 1 | –
2 | Ac-KLLSSSETKRAARRPYKPIALRQSQALPPRPPPPAPVNDEPI-NH2 (peptide, UniProt Q13330 670-711, looked up) [MTA1-(670-711) peptide] | 1 | –
3 | Ac-KLLSSSETKRAARRPYKPIALRQSQA-NH2 (peptide, UniProt Q13330 670-695, looked up) [MTA1-(670-695) peptide] | 1 | 50

Source: PMC4139204 (The Journal of Biological Chemistry, 2014)
